Entries after “also recorded” stand apart in the source; their conditions may differ.
B1: RNase E 583-1061, avi-tagged: avi-tagged RNase E 583-1061 (protein)
chain: SGGEETKPTEQPAPKAEAKPERQQDRRKPRQNNRRDRNERRDTRSERTEGSDNREENRRNRRQAQQQTAETRESRQQAEVTEKARTADEQQAPRRERSRRRNDDKRQAQQEAKALNVEEQSVQETEQEERVRPVQPRRKQRQLNQKVRYEQSVAEEAVVAPVVEETVAAEPIVQEAPAPRTELVKVPLPVVAQTAPEQQEENNADNRDNGGMPRRSRRSPRHLRVSGQRRRRYRDERYPTQSPMPLTVACASPELASGKVWIRYPIVRPQDVQVEEQREQEEVHVQPMVTEVPVAAAIEPVVSAPVVEEVAGVVEAPVQVAEPQPEVVETTHPEVIAAAVTEQPQVITESDVAVAQEVAEQAEPVVEPQEETADIEEVVETAEVVVAEPEVVAQPAAPVVAEVAAEVETVAAVEPEVTVEHNHATAPMTRAPAPEYVPEAPRHSDWQRPTFAFEGKGAAGGHTATHHASAAPARPQPVE
modifications: left off: Avi tag, end not stated, kept
B2: RNase E 960 – 1061 R1012A: RNase E peptide with point mutation of Arg1012 to alanine (peptide)
chain: VVETAEVVVAEPEVVAQPAAPVVAEVAAEVETVAAVEPEVTVEHNHATAPMTAAPAPEYVPEAPRHSDWQRPTFAFEGKGAAGGHTATHHASAAPARPQPVE
modifications: left off: His6, N-terminal, cleaved | MBP, N-terminal, cleaved | intein, C-terminal, cleaved | choline-binding domain, C-terminal, cleaved
notes: RNase E peptide with point mutation of Arg1012 to alanine
B3: RNase E 960 – 1061 R1056A: RNase E peptide with point mutation of Arg1056 to alanine (peptide)
chain: VVETAEVVVAEPEVVAQPAAPVVAEVAAEVETVAAVEPEVTVEHNHATAPMTRAPAPEYVPEAPRHSDWQRPTFAFEGKGAAGGHTATHHASAAPAAPQPVE
modifications: left off: His6, N-terminal, cleaved | MBP, N-terminal, cleaved | intein, C-terminal, cleaved | choline-binding domain, C-terminal, cleaved
notes: RNase E peptide with point mutation of Arg1056 to alanine
B4: E. coli PNPase core, lacking S1 and KH domains: truncated PNPase lacking the KH and S1 domains (protein)
chain: MLNPIVRKFQYGQHTVTLETGMMARQATAAVMVSMDDTAVFVTVVGQKKAKPGQDFFPLTVNYQERTYAAGRIPGSFFRREGRPSEGETLIARLIDRPIRPLFPEGFVNEVQVIATVVSVNPQVNPDIVAMIGASAALSLSGIPFNGPIGAARVGYINDQYVLNPTQDELKESKLDLVVAGTEAAVLMVESEAQLLSEDQMLGAVVFGHEQQQVVIQNINELVKEAGKPRWDWQPEPVNEALNARVAALAEARLSDAYRITDKQERYAQVDVIKSETIATLLAEDETLDENELGEILHAIEKNVVRSRVLAGEPRIDGREKDMIRGLDVRTGVLPRTHGSALFTRGETQALVTATLGTARDAQVLDELMGERTDTFLFHYNFPPYSVGETGMVGSPKRREIGHGRLAKRGVLAVMPDMDKFPYTVRVVSEITESNGSSSMASVCGASLALMDAGVPIKAAVAGIAMGLVKEGDNYVVLSDILGDEDHLGDMDFKVAGSRDGISALQMDIKIEGITKEIMQVALNQAKGARLHILGVMEQAINAPRGDISEFA
modifications: left off: Mycobacterium xenopi GyrA intein, C-terminal, cleaved | His8, C-terminal, cleaved

Key:
[1] = SEC-MALLS molar mass of PNPase and PNPase/RNase E complexes; format: physicochemical
Method: Estimation of molar masses of PNPase and the various PNPase/RNase E complexes was carried out by size-exclusion chromatography with multi-angle laser light scattering (SEC-MALLS). Proteins (100 μl at ∼1 mg/ml concentration) were loaded onto a Superdex 200 10/300 Increase GL SEC column (GE Healthcare) at 0.5 ml/min using an AKTA Purifier FPLC system ([…]). Chromatograms were acquired using UNICORN software (GE Healthcare) at 280 nm. The eluent from the S200 column was analysed with an online DAWN HELEOS II MALLS instrument with eight detectors (Wyatt Technology), followed by an Optilab T-rEX differential refractometer (Wyatt Technology) at 25°C. Data collection and analysis were performed using ASTRA 6 software (Wyatt Technology). Eluted peaks from SEC column were evaluated by Zimm Plot, using a dn/dc value of 0.1850 ml/g. Bovine serum albumin was used as a standard to confirm the system performance (Supplementary Table S1).

PNPase = target: T1, PNPase (Escherichia coli, UniProt P05055); format: binding, E. coli; conditions: SPR; for Kd (dissociation rate constant, point mutants and wildtype): 25°C, immobilized PNPase C-His, HEPES pH 7.2, 0, 12.5, 25 and 50 nM (point mutants), contact 120 s, dissociation 120 s, duplicates
T1 construct: made in house; host or cells: E. coli Evo21(DE3)
T1 sequence (P05055 whole entry, looked up): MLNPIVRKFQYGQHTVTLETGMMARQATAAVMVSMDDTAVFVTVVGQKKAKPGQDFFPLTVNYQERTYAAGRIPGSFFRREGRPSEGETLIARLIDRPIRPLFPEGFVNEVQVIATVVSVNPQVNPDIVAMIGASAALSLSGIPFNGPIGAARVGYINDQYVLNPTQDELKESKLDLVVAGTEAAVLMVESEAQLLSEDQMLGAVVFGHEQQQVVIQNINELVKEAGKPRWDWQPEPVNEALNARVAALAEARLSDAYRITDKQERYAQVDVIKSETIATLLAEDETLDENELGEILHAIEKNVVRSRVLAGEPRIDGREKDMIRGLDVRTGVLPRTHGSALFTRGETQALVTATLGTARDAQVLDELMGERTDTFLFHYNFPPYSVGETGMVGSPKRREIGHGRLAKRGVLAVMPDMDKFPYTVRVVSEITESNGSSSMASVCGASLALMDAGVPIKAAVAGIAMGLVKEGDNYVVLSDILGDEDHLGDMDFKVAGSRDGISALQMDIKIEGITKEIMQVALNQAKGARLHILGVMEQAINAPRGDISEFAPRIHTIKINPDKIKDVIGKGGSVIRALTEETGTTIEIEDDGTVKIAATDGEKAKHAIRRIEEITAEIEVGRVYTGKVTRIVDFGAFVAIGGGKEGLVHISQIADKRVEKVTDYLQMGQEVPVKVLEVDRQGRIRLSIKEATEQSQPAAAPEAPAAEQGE
Text: Briefly, at the N-terminal of the construct, there is an Hisx6 affinity tag that will be used for affinity purification. Following the Hisx6 tag there is an maltose-binding protein (MBP) tag with a TEV cleavage site to maintain solubility of the peptides. Following the MBP tag the gene encoding the peptide is inserted, and is then followed by intein, a self-cleavable tag, followed by a choline-binding domain, which can be used for an extra step of affinity purification. […] After expression, cells were harvested, resuspended in Lysis Buffer 2 (20 mM Tris–HCl, pH 8.0, 80 mM KCl, 300 mM NaCl, 20 mM Imidazole, 0.5 mM TCEP), and lysed with a cell disruptor (Emulsiflex, Avestin). […] After subsequent rounds of washing with Ni Equilibration Buffer supplemented with, respectively, 0.1% Triton-X, 1 M NaCl, and a final wash in Ni Equilibration Buffer, samples were eluted with Ni Elution Buffer (20 mM Tris–HCl, pH 8.0, 300 mM NaCl, 300 mM imidazole, 0.5 mM TCEP). Enriched fractions were then supplemented with 100 mM β-mercaptoethanol to catalyse intein self-cleavage overnight at room temperature. Treated samples were filtered and loaded on an amylose gravity flow column, equilibrated with Amy Equilibration Buffer (20 mM Tris–HCl, pH 8.0, 20 mM NaCl, 20 mM imidazole, 2 mM β-mercaptoethanol) and after washing, His-tagged TEV protease was applied to the resin and incubated at 4°C for 2 h.
PNPase carrying a C-terminal Hisx6 tag was expressed from pExp-cis-Ec_PNP-CHis vector in E. coli Evo21(DE3) cells, induced with 0.4 mM IPTG, at 18°C overnight. After expression, cells were harvested and resuspended in Lysis Buffer 2 (20 mM Tris–HCl, pH 8.0, 80 mM KCl, 300 mM NaCl, 20 mM imidazole, 0.5 mM TCEP), and lysed with a cell disruptor (Emulsiflex, Avestin). […] After subsequent rounds of washing with equilibration buffer supplemented with 0.1% Triton-X, or 1 M NaCl, the sample was eluted with Ni PNPCHis Elution Buffer (20 mM NaH2PO4, pH 8.0, 300 mM NaCl, 300 mM KCl, 5 mM MgCl2, 300 mM imidazole, pH 7.5, 10 mM β-mercaptoethanol). […] Fractions containing PNPase were run through a HiPrep™ 26/10 Desalting Column (GE Healthcare) and buffer exchanged to Q PNPCHis A (20 mM NaH2PO4, pH 8.0, 30 mM NaCl, 10% glycerol, 0.5 mM TCEP).
Interaction measurements were made using a Biacore T200 instrument (GE) at 25°C. PNPase with a 6xHisTag at the CTD was immobilized on a Series S Sensor Chip NTA (Cytiva) to provide a signal of 5 response units (RU). […] For the SPR analysis of the point mutants, binding to PNPase was measured at four different concentrations (0, 12.5, 25, and 50 nM). All concentrations were run in duplicates. The contact time was 60 s, while the dissociation time was 120 s, at a […] flow rate. […] The chip surface was regenerated with 350 mM EDTA in water, following manufacturer's instructions. Data were processed using the manufacturer’s BIAevaluation software.

[2] = Superdex 200, 25°C, buffer A (with 0.01% w/v b-DDM)
[3] = Superdex 200, 25°C, buffer A: 50 mM Tris pH 7.5, 100 mM NaCl, 100 mM KCl, 0.01% w/v b-DDM, 1 mM TCEP
[4] = buffer A (with 0.01% w/v b-DDM)
[5] = buffer A, expected: PNPase trimer, or trimer:RNase E 1:1 ratio
[6] = Superdex 200, 25°C, buffer B: A w/o bDDM
[7] = buffer B, expected: trimer:RNase E 1:1 ratio for complexes
[8] = buffer B: A w/o bDDM, second line in buffer B
[9] = mutant vs wildtype RNase E 960–1061

| Molecule | Mw weight-averaged solute molar mass [1, 2] | Mn number-averaged solute molar mass [1, 3] | Polydispersity (Mn/Mw) [1, 4] | Difference Mn from expected mass [1, 5] [%] | Mn number-averaged solute molar mass [1, 6] | Mw weight-averaged solute molar mass [1, 6] | Difference Mn from expected mass [1, 7] [%] | Polydispersity (Mn/Mw) ([1]; buffer B: A w/o bDDM) | Kd (dissociation rate constant, point mutants and wildtype) (PNPase) [s⁻¹] | association rate compared to the wildtype, in words (PNPase; [9]) | dissociation rate (off-rate) compared to the wildtype, in words (PNPase; [9]) | further results |
| --- | --- | --- | --- | --- | --- | --- | --- | --- | --- | --- | --- | --- |
| E. coli PNPase: polynucleotide phosphorylase, trimer | 204,900 Da | 204,600 Da | 1.001 | 11.5 |  |  |  |  |  |  |  |  |
| Bovine serum albumin: standard to confirm the system performance [reference compound] | 63,270 Da | 63,250 Da | 1.000 | 4.8 | 63,300 Da | 63,350 Da | 4.7 | 1.001 |  |  |  | Difference Mn from expected mass ([1]; buffer B, second line in buffer B): 3.8%; Mn number-averaged solute molar mass [1, 8]: 63,900 Da; Mw weight-averaged solute molar mass [1, 8]: 64,200 Da; Polydispersity (Mn/Mw) [1, 8]: 1.005 |
| B1 |  |  |  |  | 52,930 Da | 53,310 Da | 4.7 | 1.007 |  |  |  |  |
| B2 |  |  |  |  |  |  |  |  | 0.052 | does not significantly affect the KD of the interaction and the association rate | faster off-rate; also recorded: faster dissociation rate | effect on KD / binding compared to the wildtype, in words (PNPase; [9]): does not significantly affect the KD of the interaction |
| B3 |  |  |  |  |  |  |  |  | 0.045 | ten-fold slower | faster off-rate | KD change compared to the wildtype (PNPase; [9]): roughly 13 fold |
| B4 | 163,600 Da | 163,300 Da | 1.002 | 8.7 |  |  |  |  |  |  |  |  |

From article PMC12489471, “A multi-dentate, cooperative interaction between endo- and exo-ribonucleases within the bacterial RNA degradosome” (Nucleic Acids Research, 2025)
